From paper doi:10.1101/2022.11.11.516191

Assays:
Assay in all cases: SEC
Settings in all cases: remark: other sources report otherwise
[1] = target: T1, 14-3-3 β 130nY (human), P31946
T1 chain: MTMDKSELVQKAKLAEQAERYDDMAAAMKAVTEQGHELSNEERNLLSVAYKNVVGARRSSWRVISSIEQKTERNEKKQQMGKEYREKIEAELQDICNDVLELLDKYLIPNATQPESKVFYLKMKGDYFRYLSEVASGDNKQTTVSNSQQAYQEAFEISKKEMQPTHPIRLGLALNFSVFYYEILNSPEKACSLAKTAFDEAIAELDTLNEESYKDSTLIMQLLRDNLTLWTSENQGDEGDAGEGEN

[2] = target: T2, 14-3-3 β 213nY (human), P31946
T2 chain: T1 chain

[3] = target: T3, 14-3-3 β wild-type (human), P31946
T3 chain: T1 chain

B1: 14-3-3 β 130nY, P31946 1-246 (natural protein)
chain: T1 chain
modifications: here or on the partner: 3-nitro-tyrosine at 130 (β-isoform numbering); 3-nitro-tyrosine at 130 (β-isoform numbering)
stoichiometry N [1]: 2

B2: 14-3-3 β 213nY, P31946 1-246 (natural protein)
chain: T1 chain
modifications: here or on the partner: 3-nitro-tyrosine at 213 (β-isoform numbering); 3-nitro-tyrosine at 213 (β-isoform numbering)
stoichiometry N [2]: 2

B3: 14-3-3 β wild-type, P31946 1-246 (natural protein)
chain: T1 chain
stoichiometry N [3]: 2
